Assay results: patent US20080248465A1

How the values were obtained:
human FcγRIIb (human) [1] = biological target: human FcγRIIb (human) (UniProt P31994); test: flow cytometry on FcγRIIb transfectants
[2] = biological target: human FcγRIIa, H131 allele (human) (UniProt P12318); test: flow cytometry on FcγRIIa (H131) transfectants
[3] = biological target: human FcγRIIa, R131 allele (human) (UniProt P12318); test: flow cytometry on FcγRIIa (R131) transfectants
human FcγRIIb (human) [4] = biological target: human FcγRIIb (human) (UniProt P31994); test: flow cytometry, background staining on EBV-transformed B cells of 2B.1/2B.1 donors
human FcγRIIb (human) [5] = biological target: human FcγRIIb (human) (UniProt P31994); test: flow cytometry, background staining on EBV-transformed B cells of 2B.1/2B.4 donors
human FcγRIIb (human) [6] = biological target: human FcγRIIb (human) (UniProt P31994); test: flow cytometry, background staining on EBV-transformed B cells of a 2B.4/2B.4 donor
human FcγRIIb (human) [7] = biological target: human FcγRIIb (human) (UniProt P31994); test: flow cytometry, background staining on peripheral B lymphocytes of 2B.1/2B.1 donors
human FcγRIIb (human) [8] = biological target: human FcγRIIb (human) (UniProt P31994); test: flow cytometry, background staining on peripheral B lymphocytes of 2B.1/2B.4 donors

Sequence of UniProt P31994 (P31994 43-310): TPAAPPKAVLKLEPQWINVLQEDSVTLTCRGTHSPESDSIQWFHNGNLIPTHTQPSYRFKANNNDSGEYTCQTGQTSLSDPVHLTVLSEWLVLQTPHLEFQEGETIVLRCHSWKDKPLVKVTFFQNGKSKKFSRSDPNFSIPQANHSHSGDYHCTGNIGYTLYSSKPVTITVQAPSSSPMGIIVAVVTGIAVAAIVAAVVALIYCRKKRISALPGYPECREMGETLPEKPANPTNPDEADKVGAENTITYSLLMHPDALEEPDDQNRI

| fold staining against mAb IV.3 (human FcγRIIb (human) [1]) | fold difference against mAb IV.3 [2] | fold difference against mAb IV.3 [3] | MFI (human FcγRIIb (human) [4]) | MFI (human FcγRIIb (human) [5]) | MFI (human FcγRIIb (human) [6]) | MFI (human FcγRIIb (human) [7]) | MFI (human FcγRIIb (human) [8]) | Substance |
| --- | --- | --- | --- | --- | --- | --- | --- | --- |
| 10 fold | < 2 fold | < 2 fold | – | – | – | – | – | mAb AT-10 (antibody) |
| – | – | – | 3.6 MFI | 3.6 MFI | 3.9 MFI | 4.1 MFI | 3.9 MFI | mIgG1 isotype control (antibody) |
